B1: CPEB3 Ribozyme (parent)
chain: GGGGGCCACAGCAGAAGCGUUCACGUCGCGGCCCCUGUCAGAUUCUGGUGAAUCUGCGAAUUCUGCUGU

In this series the parent is B1. The series is described as follows: self-cleavage, relative activity (ratio to wild type); higher = more cleavage; co-transcriptional.
Regarding AGGGGCCACAGCAGAAGCGUUCACGUCGCGGCCCCUGUCAAAUUCUGGUGAAUCUGCGAAUUCUGCUGU [G1A G41A], the self-cleavage came to 0.0513.
CUGGGCCACAGCAGAAGCGUUCACGUCGCGGCCCCUGUCAGAUUCUGGUGAAUCUGCGAAUUCUGCUGU [G1C G2U]: the self-cleavage came to 0.142.
Consider CCGGGCCACAGCAGAAGCGUUCACGUCGCGGCCCCUGUCAGAUUCUGGUGAAUCUGCGAAUUCUGCUGU [G1C G2C], for which the self-cleavage was determined as 0.67.
The result for AGGGGCCACAGCAGAAGCGUCCACGUCGCGGCCCCUGUCAGAUUCUGGUGAAUCUGCGAAUUCUGCUGU [G1A U21C] reads 0.0967; that for CGGGGCCGCAGCAGAAGCGUUCACGUCGCGGCCCCUGUCAGAUUCUGGUGAAUCUGCGAAUUCUGCUGU [G1C A8G], 0.205.
For CGGGGCCACAGCAGAAGCGUUCACGUCGCGGCCCCUGUCUGAUUCUGGUGAAUCUGCGAAUUCUGCUGU [G1C A40U], the self-cleavage was determined as 0.195.
Take CGGGGCCACAGCAGAAGCGUACACGUCGCGGCCCCUGUCAGAUUCUGGUGAAUCUGCGAAUUCUGCUGU [G1C U21A]: the self-cleavage was found to be 0.246.
Consider CGGGGCCACUGCAGAAGCGUUCACGUCGCGGCCCCUGUCAGAUUCUGGUGAAUCUGCGAAUUCUGCUGU [G1C A10U], for which the self-cleavage amounted to 0.209.
In the case of CGGGGCCACCGCAGAAGCGUUCACGUCGCGGCCCCUGUCAGAUUCUGGUGAAUCUGCGAAUUCUGCUGU [G1C A10C], the self-cleavage amounted to 0.23.
For CGGGGCCACAGCAGAAGCGUUCACGUCGCGGCCCCUGUCAGAUUCUGGUGAAUUUGCGAAUUCUGCUGU [G1C C54U], the self-cleavage was found to be 0.237.
In the case of CGGGGCCACAGCAGAAGCGUUCACGUCGCGGCCCCUGUCAGAUUCUGGUGAAUAUGCGAAUUCUGCUGU [G1C C54A], the self-cleavage was 0.272.
With CGGGCCCACAGCAGAAGCGUUCACGUCGCGGCCCCUGUCAGAUUCUGGUGAAUCUGCGAAUUCUGCUGU [G1C G5C], the self-cleavage was found to be 0.15.
As to CGGGACCACAGCAGAAGCGUUCACGUCGCGGCCCCUGUCAGAUUCUGGUGAAUCUGCGAAUUCUGCUGU [G1C G5A], the self-cleavage was 0.272.
Take AGGGGCCACAGCAGAAGCGUUCACGUCGCGGCCCCUGUCAGACUCUGGUGAAUCUGCGAAUUCUGCUGU [G1A U43C]: the self-cleavage worked out at 0.0436.
Turning to AGGGGCCACAGCAGAAGCGUUCACGUCGCGGCCCCUGUCAGAAUCUGGUGAAUCUGCGAAUUCUGCUGU [G1A U43A], the self-cleavage stood at 0.0552.
For AGGGGCCACAGCAGAAGCGUUCACGUCGCGGCCCCUGUCAGAGUCUGGUGAAUCUGCGAAUUCUGCUGU [G1A U43G] the value was 0.0723; for AGGGGCCACAGCAGAAGCGUUCACGUCGCGGCCCCUGUCAGAUUCUGGUGAAUCUGCGAAUUCUGCGGU [G1A U67G], 0.0812; for AGGGGCCACAGCAGAAGCGUUCACGUCGCGGCCCCUGUCAGAUUCUGGUGAAUCUGCGAAUUCUGCAGU [G1A U67A], 0.121.
For CGGGGCCACAGCAGAAGCGUUCACGUCGCGGCCCCUGUCAGAUUCAGGUGAAUCUGCGAAUUCUGCUGU [G1C U46A] the value was 0.208.
In the case of CGGGGCCACAGCAGAAGCGUUCACGUCGCGGCCCCUGUCAGAUUCGGGUGAAUCUGCGAAUUCUGCUGU [G1C U46G], the self-cleavage came out at 0.234.
As for CGGGGCCACAGCAGAAGCGUUCACGUCGCUGCCCCUGUCAGAUUCUGGUGAAUCUGCGAAUUCUGCUGU [G1C G30U], the self-cleavage was determined as 0.162.
The result for CGGGGCCACAGCAGUAGCGUUCACGUCGCGGCCCCUGUCAGAUUCUGGUGAAUCUGCGAAUUCUGCUGU [G1C A15U] reads 0.229.
On to CGGUGCCACAGCAGAAGCGUUCACGUCGCGGCCCCUGUCAGAUUCUGGUGAAUCUGCGAAUUCUGCUGU [G1C G4U], for which the self-cleavage turned out to be 0.205.
In the case of AGGGGCCACAGCAGAAGCGUUCACGUCGCGGCCCCUGUCAGAUUCUGGUGAAUCUGCGAAUGCUGCUGU [G1A U62G], the self-cleavage turned out to be 0.0371.
For the variant AGGGGCCACAGCAGAAGCGUUCACGUCGCGGCCCCUGUCAGAUUCUGGUGAAUCUGCGAAUCCUGCUGU [G1A U62C], the self-cleavage was found to be 0.033.
In the case of CGGGGCCACAGCAGAAGCGUUCAUGUCGCGGCCCCUGUCAGAUUCUGGUGAAUCUGCGAAUUCUGCUGU [G1C C24U], the self-cleavage was found to be 0.203.
Turning to CGGGGCCACAGCAGAAGCGUUCAGGUCGCGGCCCCUGUCAGAUUCUGGUGAAUCUGCGAAUUCUGCUGU [G1C C24G], the self-cleavage worked out at 0.118.
Turning to CGGGGCCACAGCAGAAGCGUUCACGUCGCGGCCCCUGUCAGAUUCUGGUGGAUCUGCGAAUUCUGCUGU [G1C A51G], the self-cleavage stood at 0.18.
On to CGGGGCCACAGCAGAAGCGUUCACGUCGCGGCCCCUGUCAGAUCCUGGUGAAUCUGCGAAUUCUGCUGU [G1C U44C], for which the self-cleavage stood at 0.232.
On to AGGGGCCACAGCAGAAGCGUUCACGUCGCGGCCCCUGACAGAUUCUGGUGAAUCUGCGAAUUCUGCUGU [G1A U38A], for which the self-cleavage is 0.0918.
In the case of AGGGGCCACAGCAGAAGCGUUCACGUCGCGGCCCCUGGCAGAUUCUGGUGAAUCUGCGAAUUCUGCUGU [G1A U38G], the self-cleavage is 0.0274.
In the case of CGGGGCCACAGCAGAAGCGUUCACGUCGCGGCCCCUGUCAGAUUCUGAUGAAUCUGCGAAUUCUGCUGU [G1C G48A], the self-cleavage is 0.204.
The result for CGGGGCCACAGCAGAAGCGUUCACGUCGCGGCCCCUGUCAGAUUCUGCUGAAUCUGCGAAUUCUGCUGU [G1C G48C] reads 0.215; that for CGGGGCCACAGCAGAAGCGUUCACGACGCGGCCCCUGUCAGAUUCUGGUGAAUCUGCGAAUUCUGCUGU [G1C U26A], 0.165.
For CGGGGCCACAGCAGAAGCGUUCACGUCGCGGCCCCGGUCAGAUUCUGGUGAAUCUGCGAAUUCUGCUGU [G1C U36G] the value was 0.297; for CGGGGCCACAGCAGAAGCGUUCACGUCGCGGCCCCUGUAAGAUUCUGGUGAAUCUGCGAAUUCUGCUGU [G1C C39A], 0.174; for CGGGGCUACAGCAGAAGCGUUCACGUCGCGGCCCCUGUCAGAUUCUGGUGAAUCUGCGAAUUCUGCUGU [G1C C7U], 0.172.
For CGGGGCCACAGCAGAAGCGUUCACGUCGCGGCCCCUAUCAGAUUCUGGUGAAUCUGCGAAUUCUGCUGU [G1C G37A] the value was 0.157; for AGGGGCCACAGCAGAAGCGUUCACGUCGCGGCCCCUGUCAGAUUCUGGUGAAUCUGCGAAUUCCGCUGU [G1A U64C], 0.0762.

Values taken from the RNAGym collection of RNA variant scans (doi:10.7554/elife.80360).
